This is an account of results in patent US20240059757A1 (VIR BIOTECHNOLOGY, published 2024).

Values joined by “and” are separate entries in the source; they are usually repeats but may differ in a detail not shown here. Identical values can stand only once. Like-named read-outs stand apart in the source and are kept apart here. Where only a bound is given, the exact number is not on record here.

Assay [1] deals with T1, SARS-CoV-2 RBD (residues 331-550 of spike from BetaCoV/Wuhan-Hu-1/2019, accession number MN908947) (SARS-CoV-2 Wuhan-Hu-1, UniProt P0DTC2 331-550).
Assay [2] concerns the target T1, SARS-CoV-2 RBD (residues 331-550 of …). The assay can be described thus: BLI. (In general: BLI is a label-free optical method that tracks binding on a fibre tip over time.)
Assay [3] has as its target SARS-CoV-2 mutant RBD N439K (SARS-CoV-2, UniProt P0DTC2 328-531). The assay can be described thus: ELISA. In general terms: ELISA stands for enzyme-linked immunosorbent assay.
The target of assay [4] is T1, SARS-CoV-2 RBD (residues 331-550 of …). The assay can be described thus: ELISA.
For assay [5], the target named is T2, SARS-CoV-2 Spike protein (SARS-CoV-2 Wuhan-Hu-1, UniProt P0DTC2 14-1273). The assay can be described thus: cell-based or functional assay.
Assay [6] deals with T2, SARS-CoV-2 Spike protein. The assay can be described thus: cell-based or functional assay. The source holds these as a separate data set.
Assay [7] deals with T1, SARS-CoV-2 RBD (residues 331-550 of …). The assay can be described thus: BLI. This is another data set of the same source.

B1: 407_10_1_v2 (antibody, V domains shown)
VH: QVQLVQSGAEVKKPGSSVKVSCKASGGIFNTYTISWVRQAPGQGLEWMGRIILMSGMANYAQKIQGRVTITADKSTSTAYMELTSLRSDDTAVYYCARGFNGNYYGWGDDDAFDIWGQGTLVTVYS
VL: QTVLTQPPSVSGAPGQRVTISCTGSNSNIGAGYDVHWYQQLPGTAPKLLICGNSNRPSGVPDRFSGSKSGTSASLAITGLQAEDEADYYCQSYDSSLSGPNWVFGGGTKLTVL
On to B1, for which the EC50 (read off the curve) (commonly the concentration at which the effect is half-maximal) in assay [1] is ~5 µg/mL.

B2: S2X259 variant antibody, VH SEQ ID NO 459 / VL SEQ ID NO 445 (antibody, V domains shown)
VH: QVQLVQSGAEVKKPGSSVKVSCKASGGIFNTYTISWVRQAPGQGLEWMGRIILMSGKANYAQKIQGRVTITADKSTSTAYMELTSLRSDDTAVYYCARGFNGNYYGWGDDDAFDIWGQGTLVTVSS
VL: QTVLTQPPSVSGAPGQRVTISCTGSNSNIGAGYDVHWYQQLPGTAPKLLIVGNSNRPSGVPDRFSGSKSGTSASLAITGLQAEDEADYYCQSYDSSLSGPNWVFGGGTKLTVL
Take B2: in assay [2], the Kd (as a rule, the free concentration of one partner at which half of the binding sites on the other are occupied at equilibrium, for simple one-to-one binding) was 0.108 nM; the dissociation rate constant (koff) (usually a measure of how fast the partners let go of each other) came out at 6.46e-05 s⁻¹; the on-rate constant (kon) (usually a measure of how fast the partners come together) was 601000 M⁻¹ s⁻¹. The IC50 (as a rule, the concentration that inhibits the measured activity by half) in assay [3] is ≥ 0.05 µg/mL and ≤ 0.1 µg/mL. Further, in assay [4], the half-maximal inhibitory concentration (IC50) was ≥ 0.05 µg/mL and ≤ 0.1 µg/mL.

B3: S2X259 variant antibody, VH SEQ ID NO 460 / VL SEQ ID NO 445 (antibody, V domains shown)
VH: QVQLVQSGAEVKKPGSSVKVSCKASGGIFNTYTISWVRQAPGQGLEWMGRIILISGIANYAQKIQGRVTITADKSTSTAYMELTSLRSDDTAVYYCARGFNGNYYGWGDDDAFDIWGQGTLVTVSS
VL: QTVLTQPPSVSGAPGQRVTISCTGSNSNIGAGYDVHWYQQLPGTAPKLLIVGNSNRPSGVPDRFSGSKSGTSASLAITGLQAEDEADYYCQSYDSSLSGPNWVFGGGTKLTVL
For the molecule B3, in assay [2], the Kd was 0.298 nM, the koff was 0.000177 s⁻¹ and the kon was found to be 595000 M⁻¹ s⁻¹. Further, the IC50 in assay [4] was ≥ 0.05 µg/mL and ≤ 0.1 µg/mL.

B4: S2X259 variant antibody, VH SEQ ID NO 408 / VL SEQ ID NO 445 (antibody, V domains shown)
VH: QVQLVQSGAEVKKPGSSVKVSCKASGGIFNTYTISWVRQAPGQGLEWMGRIILMSGMANYAQKIQGRVTITADKSTSTAYMELTSLRSDDTAVYYCARGFNGNYYGWGDDDAFDISGQGTLVTVYS
VL: QTVLTQPPSVSGAPGQRVTISCTGSNSNIGAGYDVHWYQQLPGTAPKLLIVGNSNRPSGVPDRFSGSKSGTSASLAITGLQAEDEADYYCQSYDSSLSGPNWVFGGGTKLTVL
Turning to B4, the “neutralization IC50” value is < 100 ng/mL in the assay with SARS-CoV-2 Spike protein [5] and 190 ng/mL with SARS-CoV-2 Spike protein [6]. The Kd turned out to be 0.0314 nM in assay [2] and 0.0764 nM in assay [7]. In addition, the koff in assay [2] is 2.08e-05 s⁻¹. The molecule further showed a kon in assay [2] of 661000 M⁻¹ s⁻¹.

B5: S2X259 variant antibody, VH SEQ ID NO 408 / VL SEQ ID NO 444 (antibody, V domains shown)
VH: QVQLVQSGAEVKKPGSSVKVSCKASGGIFNTYTISWVRQAPGQGLEWMGRIILMSGMANYAQKIQGRVTITADKSTSTAYMELTSLRSDDTAVYYCARGFNGNYYGWGDDDAFDISGQGTLVTVYS
VL: QTVLTQPPSVSGAPGQRVTISCTGSNSNIGAGYDVHWYQQLPGTAPKLLIYGNSNRPSGVPDRFSGSKSGTSASLAITGLQAEDEADYYCQSYDSSLSGPNWVFGGGTKLTVL
Consider B5, for which, in the assay with SARS-CoV-2 Spike protein [6], the “neutralization IC50” value is 167 ng/mL. In assay [7], this molecule came in with a dissociation constant (Kd) of 0.0642 nM.

B6: S2X259 variant antibody, VH SEQ ID NO 448 / VL SEQ ID NO 412 (antibody, V domains shown)
VH: QVQLVQSGAEVKKPGSSVKVSCKASGGIFSTYTISWVRQAPGQGLEWMGRIILMSGMANYAQKIQGRVTITADKSTSTAYMELTSLRSDDTAVYYCARGFNGNYYGWGDDDAFDISGQGTLVTVYS
VL: QTVLTQPPSVSGAPGQRVTISCTGSNSNIGAGYDVHWYQQLPGTAPKLLICGNSNRPSGVPDRFSGSKSGTSASLAITGLQAEDEADYYCQSYDSSLSGPNWVFGGGTKLTVL
With B6, in the assay with SARS-CoV-2 Spike protein [6], the “neutralization IC50” value was 13.4 ng/mL. The molecule also gave an equilibrium dissociation constant (Kd) in assay [7] of 0.584 nM.

B7: S2X259 variant antibody, VH SEQ ID NO 458 / VL SEQ ID NO 445 (antibody, V domains shown)
VH: QVQLVQSGAEVKKPGSSVKVSCKASGGIFNTYTISWVRQAPGQGLEWMGRIILMSGMANYAQKIQGRVTITADKSTSTAYMELTSLRSDDTAVYYCARGFNGNYYGWGDDDAFDIWGQGTLVTVSS
VL: QTVLTQPPSVSGAPGQRVTISCTGSNSNIGAGYDVHWYQQLPGTAPKLLIVGNSNRPSGVPDRFSGSKSGTSASLAITGLQAEDEADYYCQSYDSSLSGPNWVFGGGTKLTVL
In assay [2], B7 returned an equilibrium dissociation constant (Kd) of 0.0836 nM, an off-rate constant (koff) of 5.03e-05 s⁻¹ and an association rate constant (kon) of 601000 M⁻¹ s⁻¹. Also, the IC50 in assay [3] is ≥ 0.05 µg/mL and ≤ 0.1 µg/mL. Also, the half-maximal inhibitory concentration (IC50) in assay [4] is ≥ 0.05 µg/mL and ≤ 0.1 µg/mL.

B8: S2X259 variant antibody, VH SEQ ID NO 446 / VL SEQ ID NO 412 (antibody, V domains shown)
VH: QVQLVQSGAEVKKPGSSVKVSCKASGGIFNTYTISWVRQAPGQGLEWMGRIILISGIANYAQKIQGRVTITADKSTSTAYMELTSLRSDDTAVYYCARGFNGNYYGWGDDDAFDISGQGTLVTVYS
VL: QTVLTQPPSVSGAPGQRVTISCTGSNSNIGAGYDVHWYQQLPGTAPKLLICGNSNRPSGVPDRFSGSKSGTSASLAITGLQAEDEADYYCQSYDSSLSGPNWVFGGGTKLTVL
As for B8, the “neutralization IC50” value with SARS-CoV-2 Spike protein [6] worked out at 320 ng/mL. Also, in assay [7], binding was characterised by a dissociation constant (Kd) of 0.572 nM.

B9: S2X259 variant antibody, VH SEQ ID NO 408 / VL SEQ ID NO 443 (antibody, V domains shown)
VH: QVQLVQSGAEVKKPGSSVKVSCKASGGIFNTYTISWVRQAPGQGLEWMGRIILMSGMANYAQKIQGRVTITADKSTSTAYMELTSLRSDDTAVYYCARGFNGNYYGWGDDDAFDISGQGTLVTVYS
VL: QTVLTQPPSVSGAPGQRVTISCTGSNSNIGAGYDVHWYQQLPGTAPKLLIAGNSNRPSGVPDRFSGSKSGTSASLAITGLQAEDEADYYCQSYDSSLSGPNWVFGGGTKLTVL
Regarding B9, the entries for the “neutralization IC50” value in the assay with SARS-CoV-2 Spike protein [5] and with SARS-CoV-2 Spike protein [6] were < 100 ng/mL and 97.5 ng/mL, respectively. Besides, the dissociation constant Kd in assay [7] is 0.0828 nM.

B10: S2X259 variant antibody, VH SEQ ID NO 408 / VL SEQ ID NO 442 (antibody, V domains shown)
VH: QVQLVQSGAEVKKPGSSVKVSCKASGGIFNTYTISWVRQAPGQGLEWMGRIILMSGMANYAQKIQGRVTITADKSTSTAYMELTSLRSDDTAVYYCARGFNGNYYGWGDDDAFDISGQGTLVTVYS
VL: QTVLTQPPSVSGAPGQRVTISCTGSNSNIGAGYDVHWYQQLPGTAPKLLISGNSNRPSGVPDRFSGSKSGTSASLAITGLQAEDEADYYCQSYDSSLSGPNWVFGGGTKLTVL
For B10, in the assay with SARS-CoV-2 Spike protein [6], the “neutralization IC50” value came to 190 ng/mL. Binding in assay [7] was put at a Kd of 0.0605 nM.
